Measured values as given in the supplement of paper PMC5998384.

Columns and labels:
HeLa Kyoto [1] = experiment: thermal stability score vs G1/S (z-score of summed log2 fold changes over temperatures); higher = more thermally stable than in G1/S
HeLa Kyoto [2] = experiment: melting temperature (median over replicates), in situ; higher = more thermally stable
HeLa Kyoto [3] = experiment: solubility change mitosis vs G1/S (difference of NP-40 vs SDS log2 ratios) (log2 ratio difference); higher = more soluble in mitosis
HeLa Kyoto [4] = experiment: solubility in G1/S (NP-40 vs SDS abundance) (log2 ratio); higher = more soluble; details: cell cycle stage: G1/S
[5] = cell cycle stage: early G1 (4.5 h after nocodazole release)
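Wherever melting temperature (median over replicates), in situ is given: HeLa Kyoto cells synchronized by double thymidine or nocodazole block, proteins quantified by TMT10plex mass spectrometry, three independent biological replicates.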
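Wherever solubility change mitosis vs G1/S (difference of NP-40 vs SDS log2 ratios) is given: synchronized HeLa Kyoto cells (double thymidine block for G1/S, nocodazole release for mitosis), protein amounts in NP-40 versus SDS lysates quantified by mass spectrometry, three biological replicates.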
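Wherever solubility in G1/S (NP-40 vs SDS abundance) is given: HeLa Kyoto cells arrested at G1/S by double thymidine block, proteins quantified by TMT10plex mass spectrometry in mild NP-40 versus SDS extracts, three biological replicates.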
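Wherever thermal stability score vs G1/S (z-score of summed log2 fold changes over temperatures) is given: synchronized HeLa Kyoto cells, proteins quantified by TMT10plex mass spectrometry, three biological replicates, mitosis taken 0.5 h after nocodazole release, G1/S directly after double thymidine block.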

Row | Sequence | thermal stability score (HeLa Kyoto [1]; [5]) | thermal stability score (HeLa Kyoto [1]; cell cycle stage: mitosis) | melting temperature (HeLa Kyoto [2]; cell cycle stage: G1/S) [°C] | melting temperature (HeLa Kyoto [2]; cell cycle stage: mitosis) [°C] | solubility change mitosis (log2) (HeLa Kyoto [3]) | solubility in G1/S (log2) (HeLa Kyoto [4])
1 | MERPLCSHLCSCLAMLALLSPLSLAQYDSWPHYPEYFQQPAPEYHQPQAPANVAKIQLRLAGQKRKHSEGRVEVYYDGQWGTVCDDDFSIHAAHVVCRELGYVEAKSWTASSSYGKGEGPIWLDNLHCTGNEATLAACTSNGWGVTDCKHTEDVGVVCSDKRIPGFKFDNSLINQIENLNIQVEDIRIRAILSTYRKRTPVMEGYVEVKEGKTWKQICDKHWTAKNSRVVCGMFGFPGERTYNTKVYKMFASRRKQRYWPFSMDCTGTEAHISSCKLGPQVSLDPMKNVTCENGLPAVVSCVPGQVFSPDGPSRFRKAYKPEQPLVRLRGGAYIGEGRVEVLKNGEWGTVCDDKWDLVSASVVCRELGFGSAKEAVTGSRLGQGIGPIHLNEIQCTGNEKSIIDCKFNAESQGCNHEEDAGVRCNTPAMGLQKKLRLNGGRNPYEGRVEVLVERNGSLVWGMVCGQNWGIVEAMVVCRQLGLGFASNAFQETWYWHGDVNSNKVVMSGVKCSGTELSLAHCRHDGEDVACPQGGVQYGAGVACSETAPDLVLNAEMVQQTTYLEDRPMFMLQCAMEENCLSASAAQTDPTTGYRRLLRFSSQIHNNGQSDFRPKNGRHAWIWHDCHRHYHSMEVFTHYDLLNLNGTKVAEGHKASFCLEDTECEGDIQKNYECANFGDQGITMGCWDMYRHDIDCQWVDITDVPPGDYLFQVVINPNFEVAESDYSNNIMKCRSRYDGHRIWMYNCHIGGSFSEETEKKFEHFSGLLNNQLSPQ [LOXL2] | 2.38 | 4.28 | 54.3 | 54.7 | -0.173 | -0.152
2 | MERQVLLSEPEEAAALYRGLSRQPALSAACLGPEVTTQYGGQYRTVHTEWTQRDLERMENIRFCRQYLVFHDGDSVVFAGPAGNSVETRGELLSRESPSGTMKAVLRKAGGTGPGEEKQFLEVWEKNRKLKSFNLSALEKHGPVYEDDCFGCLSWSHSETHLLYVAEKKRPKAESFFQTKALDVSASDDEIARLKKPDQAIKGDQFVFYEDWGENMVSKSIPVLCVLDVESGNISVLEGVPENVSPGQAFWAPGDAGVVFVGWWHEPFRLGIRFCTNRRSALYYVDLIGGKCELLSDDSLAVSSPRLSPDQCRIVYLQYPSLIPHHQCSQLCLYDWYTKVTSVVVDVVPRQLGENFSGIYCSLLPLGCWSADSQRVVFDSAQRSRQDLFAVDTQVGTVTSLTAGGSGGSWKLLTIDQDLMVAQFSTPSLPPTLKVGFLPSAGKEQSVLWVSLEEAEPIPDIHWGIRVLQPPPEQENVQYAGLDFEAILLQPGSPPDKTQVPMVVMPHGGPHSSFVTAWMLFPAMLCKMGFAVLLVNYRGSTGFGQDSILSLPGNVGHQDVKDVQFAVEQVLQEEHFDASHVALMGGSHGGFISCHLIGQYPETYRACVARNPVINIASMLGSTDIPDWCVVEAGFPFSSDCLPDLSVWAEMLDKSPIRYIPQVKTPLLLMLGQEDRRVPFKQGMEYYRALKTRNVPVRLLLYPKSTHALSEVEVESDSFMNAVLWLRTHLGS [APEH] | -2.58 | -2.38 | 58.5 | 59.4 | -0.0981 | 0.11
3 | MERSGPSEVTGSDASGPDPQLAVTMGFTGFGKKARTFDLEAMFEQTRRTAVERSRKTLEAREKEEEMNREKELRRQNEDIEPTSSRSNVVRDCSKSSSRDTSSSESEQSSDSSDDELIGPPLPPKMVGKPVNFMEEDILGPLPPPLNEEEEEAEEEEEEEEEEENPVHKIPDSHEITLKHGTKTVSALGLDPSGARLVTGGYDYDVKFWDFAGMDASFKAFRSLQPCECHQIKSLQYSNTGDMILVVSGSSQAKVIDRDGFEVMECIKGDQYIVDMANTKGHTAMLHTGSWHPKIKGEFMTCSNDATVRTWEVENPKKQKSVFKPRTMQGKKVIPTTCTYSRDGNLIAAACQNGSIQIWDRNLTVHPKFHYKQAHDSGTDTSCVTFSYDGNVLASRGGDDSLKLWDIRQFNKPLFSASGLPTMFPMTDCCFSPDDKLIVTGTSIQRGCGSGKLVFFERRTFQRVYEIDITDASVVRCLWHPKLNQIMVGTGNGLAKVYYDPNKSQRGAKLCVVKTQRKAKQAETLTQDYIITPHALPMFREPRQRSTRKQLEKDRLDPLKSHKPEPPVAGPGRGGRVGTHGGTLSSYIVKNIALDKTDDSNPREAILRHAKAAEDSPYWVSPAYSKTQPKTMFAQVESDDEEAKNEPEWKKRKI [WDR70] | -0.26 | -0.746 | 53.3 | 53.2 | -0.0897 | -0.0649
4 | MESALPAAGFLYWVGAGTVAYLALRISYSLFTALRVWGVGNEAGVGPGLGEWAVVTGSTDGIGKSYAEELAKHGMKVVLISRSKDKLDQVSSEIKEKFKVETRTIAVDFASEDIYDKIKTGLAGLEIGILVNNVGMSYEYPEYFLDVPDLDNVIKKMININILSVCKMTQLVLPGMVERSKGAILNISSGSGMLPVPLLTIYSATKTFVDFFSQCLHEEYRSKGVFVQSVLPYFVATKLAKIRKPTLDKPSPETFVKSAIKTVGLQSRTNGYLIHALMGSIISNLPSWIYLKIVMNMNKSTRAHYLKKTKKN [HSD17B12] | -1.05 | -1.18 | 53.9 | 53.7 | -0.194 | 0.079
5 | MESCYNPGLDGIIEYDDFKLNSSIVEPKEPAPETADGPYLVIVEQPKQRGFRFRYGCEGPSHGGLPGASSEKGRKTYPTVKICNYEGPAKIEVDLVTHSDPPRAHAHSLVGKQCSELGICAVSVGPKDMTAQFNNLGVLHVTKKNMMGTMIQKLQRQRLRSRPQGLTEAEQRELEQEAKELKKVMDLSIVRLRFSAFLRASDGSFSLPLKPVISQPIHDSKSPGASNLKISRMDKTAGSVRGGDEVYLLCDKVQKDDIEVRFYEDDENGWQAFGDFSPTDVHKQYAIVFRTPPYHKMKIERPVTVFLQLKRKRGGDVSDSKQFTYYPLVEDKEEVQRKRRKALPTFSQPFGGGSHMGGGSGGAAGGYGGAGGGGSLGFFPSSLAYSPYQSGAGPMGCYPGGGGGAQMAATVPSRDSGEEAAEPSAPSRTPQCEPQAPEMLQRAREYNARLFGLAQRSARALLDYGVTADARALLAGQRHLLTAQDENGDTPLHLAIIHGQTSVIEQIVYVIHHAQDLGVVNLTNHLHQTPLHLAVITGQTSVVSFLLRVGADPALLDRHGDSAMHLALRAGAGAPELLRALLQSGAPAVPQLLHMPDFEGLYPVHLAVRARSPECLDLLVDSGAEVEATERQGGRTALHLATEMEELGLVTHLVTKLRANVNARTFAGNTPLHLAAGLGYPTLTRLLLKAGADIHAENEEPLCPLPSPPTSDSDSDSEGPEKDTRSSFRGHTPLDLTCSTKVKTLLLNAAQNTMEPPLTPPSPAGPGLSLGDTALQNLEQLLDGPEAQGSWAELAERLGLRSLVDTYRQTTSPSGSLLRSYELAGGDLAGLLEALSDMGLEEGVRLLRGPETRDKLPSTAEVKEDSAYGSQSVEQEAEKLGPPPEPPGGLCHGHPQPQVH [NFKB2] | 1.06 | 3.27 | 47.5 | 48.3 | -0.0485 | 0.18
6 | MESKALLVLTLAVWLQSLTASRGGVAAADQRRDFIDIESKFALRTPEDTAEDTCHLIPGVAESVATCHFNHSSKTFMVIHGWTVTGMYESWVPKLVAALYKREPDSNVIVVDWLSRAQEHYPVSAGYTKLVGQDVARFINWMEEEFNYPLDNVHLLGYSLGAHAAGIAGSLTNKKVNRITGLDPAGPNFEYAEAPSRLSPDDADFVDVLHTFTRGSPGRSIGIQKPVGHVDIYPNGGTFQPGCNIGEAIRVIAERGLGDVDQLVKCSHERSIHLFIDSLLNEENPSKAYRCSSKEAFEKGLCLSCRKNRCNNLGYEINKVRAKRSSKMYLKTRSQMPYKVFHYQVKIHFSGTESETHTNQAFEISLYGTVAESENIPFTLPEVSTNKTYSFLIYTEVDIGELLMLKLKWKSDSYFSWSDWWSSPGFAIQKIRVKAGETQKKVIFCSREKVSHLQKGKAPAVFVKCHDKSLNKKSG [LPL] | -1.96 | -2.52 | 53.9 | 53.7 | -0.028 | -0.0225
7 | MESPGESGAGSPGAPSPSSFTTGHLAREKPAQDPLYDVPNASGGQAGGPQRPGRVVSLRERLLLTRPVWLQLQANAAAALHMLRTEPPGTFLVRKSNTRQCQALCMRLPEASGPSFVSSHYILESPGGVSLEGSELMFPDLVQLICAYCHTRDILLLPLQLPRAIHHAATHKELEAISHLGIEFWSSSLNIKAQRGPAGGPVLPQLKARSPQELDQGTGAALCFFNPLFPGDLGPTKREKFKRSFKVRVSTETSSPLSPPAVPPPPVPVLPGAVPSQTERLPPCQLLRRESSVGYRVPAGSGPSLPPMPSLQEVDCGSPSSSEEEGVPGSRGSPATSPHLGRRRPLLRSMSAAFCSLLAPERQVGRAAAALMQDRHTAAGQLVQDLLTQVRAGPEPQELQGIRQALSRARAMLSAELGPEKLLSPKRLEHVLEKSLHCSVLKPLRPILAARLRRRLAADGSLGRLAEGLRLARAQGPGAFGSHLSLPSPVELEQVRQKLLQLLRTYSPSAQVKRLLQACKLLYMALRTQEGEGAGADEFLPLLSLVLAHCDLPELLLEAEYMSELLEPSLLTGEGGYYLTSLSASLALLSGLGQAHTLPLSPVQELRRSLSLWEQRRLPATHCFQHLLRVAYQDPSSGCTSKTLAVPPEASIATLNQLCATKFRVTQPNTFGLFLYKEQGYHRLPPGALAHRLPTTGYLVYRRAEWPETQGAVTEEEGSGQSEARSRGEEQGCQGDGDAGVKASPRDIREQSETTAEGGQGQAQEGPAQPGEPEAEGSRAAEE [RIN1] | 0.0327 | 1.21 | 48.9 | 48.6 | -0.062 | 0.282
8 | MESRDPAQPMSPGEATQSGARPADRYGLLKHSREFLDFFWDIAKPEQETRLAATEKLLEYLRGRPKGSEMKYALKRLITGLGVGRETARPCYSLALAQLLQSFEDLPLCSILQQIQEKYDLHQVKKAMLRPALFANLFGVLALFQSGRLVKDQEALMKSVKLLQALAQYQNHLQEQPRKALVDILSEVSKATLQEILPEVLKADLNIILSSPEQLELFLLAQQKVPSKLKKLVGSVNLFSDENVPRLVNVLKMAASSVKKDRKLPAIALDLLRLALKEDKFPRFWKEVVEQGLLKMQFWPASYLCFRLLGAALPLLTKEQLHLVMQGDVIRHYGEHVCTAKLPKQFKFAPEMDDYVGTFLEGCQDDPERQLAVLVAFSSVTNQGLPVTPTFWRVVRFLSPPALQGYVAWLRAMFLQPDLDSLVDFSTNNQKKAQDSSLHMPERAVFRLRKWIIFRLVSIVDSLHLEMEEALTEQVARFCLFHSFFVTKKPTSQIPETKHPFSFPLENQAREAVSSAFFSLLQTLSTQFKQAPGQTQGGQPWTYHLVQFADLLLNHSHNVTTVTPFTAQQRQAWDRMLQTLKELEAHSAEARAAAFQHLLLLVGIHLLKSPAESCDLLGDIQTCIRKSLGEKPRRSRTKTIDPQEPPWVEVLVEILLALLAQPSHLMRQVARSVFGHICSHLTPRALQLILDVLNPETSEDENDRVVVTDDSDERRLKGAEDKSEEGEDNRSSESEEESEGEESEEEERDGDVDQGFREQLMTVLQAGKALGGEDSENEEELGDEAMMALDQSLASLFAEQKLRIQARRDEKNKLQKEKALRRDFQIRVLDLVEVLVTKQPENALVLELLEPLLSIIRRSLRSSSSKQEQDLLHKTARIFTHHLCRARRYCHDLGERAGALHAQVERLVQQAGRQPDSPTALYHFNASLYLLRVLKGNTAEGCVHETQEKQKAGTDPSHMPTGPQAASCLDLNLVTRVYSTALSSFLTKRNSPLTVPMFLSLFSRHPVLCQSLLPILVQHITGPVRPRHQACLLLQKTLSMREVRSCFEDPEWKQLMGQVLAKVTENLRVLGEAQTKAQHQQALSSLELLNVLFRTCKHEKLTLDLTVLLGVLQGQQQSLQQGAHSTGSSRLHDLYWQAMKTLGVQRPKLEKKDAKEIPSATQSPISKKRKKKGFLPETKKRKKRKSEDGTPAEDGTPAATGGSQPPSMGRKKRNRTKAKVPAQANGTPTTKSPAPGAPTRSPSTPAKSPKLQKKNQKPSQVNGAPGSPTEPAGQKQHQKALPKKGVLGKSPLSALARKKARLSLVIRSPSLLQSGAKKKAQVRKAGKP [MYBBP1A] | 0.7 | 2.36 | 48.1 | 48.9 | 0.349 | -0.42
